Earlier results, collected in EP0997151B1, “Method for administering insulinotropic peptides” (priority 1998, dated 2006).

Conditions: pulmonary delivery; calculated, background

In the case of parathyroid hormone (1-34), the “Absorption values for proteins delivered through the lungs” value is listed as “fifteen”.
